{"source": "patent US20080213281A1", "about": "“Butyrylcholinesterase Variants that Alter the Activity of Chemotherapeutic Agents” (priority 2002, published 2008)", "molecules": {"B1": {"name": "wild-type butyrylcholinesterase (protein, UniProt P06276 29-602, looked up)", "Cholinesterase": "EDDIIIATKNGKVRGMNLTVFGGTVTAFLGIPYAQPPLGRLRFKKPQSLTKWSDIWNATKYANSCCQNIDQSFPGFHGSEMWNPNTDLSEDCLYLNVWIPAPKPKNATVLIWIYGGGFQTGTSSLHVYDGKFLARVERVIVVSMNYRVGALGFLALPGNPEAPGNMGLFDQQLALQWVQKNIAAFGGNPKSVTLFGESAGAASVSLHLLSPGSHSLFTRAILQSGSFNAPWAVTSLYEARNRTLNLAKLTGCSRENETEIIKCLRNKDPQEILLNEAFVVPYGTPLSVNFGPTVDGDFLTDMPDILLELGQFKKTQILVGVNKDEGTAFLVYGAPGFSKDNNSIITRKEFQEGLKIFFPGVSEFGKESILFHYTDWVDDQRPENYREALGDVVGDYNFICPALEFTKKFSEWGNNAFFYYFEHRSSKLPWPEWMGVMHGYEIEFVFGLPLERRDNYTKAEEILSRSIVKRWANFAKYGNPNETQNNSTSWPVFKSTEQKYLTLNTESTRIMTKLRAQQCRFWTSFFPKVLEMTGNIDEAEWEWKAGFHRWNNYMMDWKNQFNDYTSKKESCVGL"}, "B2": {"name": "F227A/L286Q (protein)", "chain": "B1 Cholinesterase with F227X, L286Q", "modifications": "Synthetic butyrylcholinesterase variant; VARIANT (227)..(227): Xaa = Ala; VARIANT (286)..(286): L286Q"}, "B3": {"name": "F227A/L286H (protein)", "chain": "B1 Cholinesterase with F227X, L286H", "modifications": "Synthetic butyrylcholinesterase variant; VARIANT (227)..(227): Xaa = Ala; VARIANT (286)..(286): L286H"}, "B4": {"name": "F227A/L286W (protein)", "chain": "B1 Cholinesterase with F227A, L286W", "modifications": "Synthetic butyrylcholinesterase variant; VARIANT (227)..(227): F227A; VARIANT (286)..(286): L286W"}, "B5": {"name": "F227A/S287P (protein)", "chain": "B1 Cholinesterase with F227A, S287X", "modifications": "Synthetic butyrylcholinesterase variant; VARIANT (227)..(227): F227A; VARIANT (287)..(287): Xaa = Pro"}, "B6": {"name": "AME133 (protein)", "light": "EIVLTQSPGTLSLSPGERATLSCRASSSVPYIHWYQQKPGQAPRLLIYATSALASGIPDRFSGSGSGTDFTLTISRLEPEDFAVYYCQQWLSNPPTFGQGTKLEIKRTVAAPSVFIFPPSDEQLKSGTASVVCLLNNFYPREAKVQWKVDNALQSGNSQESVTEQDSKDSTYSLSSTLTLSKADYEKHKVYACEVTHQGLSSPVTKSFNRGEC", "heavy": "EVQLVQSGAEVKKPGESLKISCKGSGRTFTSYNMHWVRQMPGKGLEWMGAIYPLTGDTSYNQKSKLQVTISADKSISTAYLQWSSLKASDTAMYYCARSTYVGGDWQFDVWGKGTTVTVSSASTKGPSVFPLAPSSKSTSGGTAALGCLVKDYFPEPVTVSWNSGALTSGVHTFPAVLQSSGLYSLSSVVTVPSSSLGTQTYICNVNHKPSNTKVDKKAEPKSCDKTHTCPPCPKLEDDIIIATKNGKVRGMNLTVFGGTVTAFLGIPYAQPPLGRLRFKKPQSLTKWSDIWNATKYANSCCQNIDQSFPGFFGSEMWNPNTDLSEDCLYLNVWIPAPKPKNATVLIWIYGGGFQTGTSSLHVYDGKFLARVERVIVVSMNYRVGALGFLALPGNPEAPGNMGLFDQQLALQWVQKNIAAFGGNPKSVTLFGESAGAASVSLHLLSPGSHSLFTRAILQSGSANAPWAVTSLYEARNRTLNLAKLTGCSRENETEIIKCLRNKDPQEILLNEAFVVPYGTNLSVNFGPTVDGDFLTDMPDILLELGQFKKTQILVGVNKDEGTAFLAYGAPGFSKDNNSIITRKEFQEGLKIFFPGVSEFGKESILFHYTDWVDDQRPENYREALGDVVGDYNFICPALEFTKKFSEWGNNAFFYYFEHRSSKLPWPEWMGVMHGYEIEFVFGLPLERRDNYTKAEEILSRSIVKRWANFAKYGNPNETQNNSTSWPVFKSTEQKYLTLNTESTRIMTKLRAQQCRFWTSFFPKV", "modifications": "Synthetic butyrylcholinesterase variant; MISC_FEATURE (1)..(213): Anti-CD20 antibody light chain; MISC_FEATURE (1)..(765): Anti-CD20 antibody VH-CH1 hinge cys L530 BChE.4-1 heavy chain construct"}, "B7": {"name": "4-1 variant (protein)", "chain": "B1 Cholinesterase with H77F, F227X, P285N, V331A", "modifications": "Synthetic butyrylcholinesterase variant; VARIANT (77)..(77): H77F; VARIANT (227)..(227): Xaa = Ala; VARIANT (285)..(285): P285N; VARIANT (331)..(331): V331A"}, "B8": {"name": "hCE-2 (protein, UniProt O00748 27-559, looked up)", "Cocaine esterase": "QDSASPIRTTHTGQVLGSLVHVKGANAGVQTFLGIPFAKPPLGPLRFAPPEPPESWSGVRDGTTHPAMCLQDLTAVESEFLSQFNMTFPSDSMSEDCLYLSIYTPAHSHEGSNLPVMVWIHGGALVFGMASLYDGSMLAALENVVVVIIQYRLGVLGFFSTGDKHATGNWGYLDQVAALRWVQQNIAHFGGNPDRVTIFGESAGGTSVSSLVVSPISQGLFHGAIMESGVALLPGLIASSADVISTVVANLSACDQVDSEALVGCLRGKSKEEILAINKPFKMIPGVVDGVFLPRHPQELLASADFQPVPSIVGVNNNEFGWLIPKVMRIYDTQKEMDREASQAALQKMLTLLMLPPTFGDLLREEYIGDNGDPQTLQAQFQEMMADSMFVIPALQVAHFQCSRAPVYFYEFQHQPSWLKNIRPPHMKADHGDELPFVFRSFFGGNYIKFTEEEEQLSRKMMKYWANFARNGNPNGEGLPHWPLFDQEEQYLQLNLQPAVGRALKAHRLQFWKKALPQKIQELEEPEERHTEL"}}, "key": {"[1]": {"settings": "cited from earlier work; for Km: Humerickhouse et al., read-out: Km (CPT-11 conversion)"}, "CD20 (human)": {"biological_target": "CD20 (human) (UniProt P11836)", "test": "method not stated"}, "[2]": {"test": "o-nitrophenyl acetate (o-NPA) hydrolysis assay for carboxylesterase activity of antibody-captured butyrylcholinesterase variants", "type": "biochemical", "settings": "antibody capture/normalization", "method": "A modification of this assay that measures o-NPA activity of butyrylcholinesterase variants normalized by capturing with an anti-butyrylcholinesterase antibody was performed as described below.\nProtocol to Determine Carboxylesterase activity of Captured Butyrylcholinesterase by o-Nitrophenyl acetate:\n1) Coat 96-well Immulon 2 plates with rabbit anti-human butyrylcholinesterase (Dako #A0032) at 10 mg/ml in PBS (100 ml/well) overnight at 4° C. 2) Remove coating solution and block plate with 3% BSA in PBS (250 ml/well) for 2 hours at room temperature. 3) Add 200 ml butyrylcholinesterase variant conditioned media and incubate at RT for 2 hrs. 4) Wash plate 3 times with 250 ml/well PBS. 5) Add 85 ml/well 0.1 M potassium phosphate pH 7.0 6) Add 13.6 mg o-NPA to 100 ml acetonitrile, mix to dissolve. Add 100 ml of this stock to 6.3 mls water and mix well. 7) Wash plate 3 times with PBS. 8) Add 15 ml of diluted o-NPA substrate. 9) Read absorbance at 405 nm.\nConditioned media from butyrylcholinesterase variants that were transiently expressed in 293T cells was tested using the above described anti-butyrylcholinesterase antibody capture/normalization assay for carboxylesterase activity. […] The level of activity of the other variants can be compared to the level of activity of F227A. […] In order to determine the amount of variability present in the assay, several wells contained the same variant. […]"}, "[3]": {"test": "HPLC assay of CPT-11 conversion to SN-38 by conditioned media of transiently expressed BChE variants", "type": "biochemical", "settings": "for SN-38 formation from CPT-11 (in words): HPLC, compared to mock or wild-type; for Fold improvement in CPT-11 conversion: compared to wild-type butyrylcholinesterase, conditioned media exposed to 20 mM CPT-11 for 72 hours at 37° C., conservative values", "description": "Butyrylcholinesterase variants were assayed for CPT-11 conversion activity using fluorescent High Performance Liquid Chromotography (HPLC) detection of SN-38 formation as described in Dodds and Rivory, Mol. Pharmacol. 56:1346-1353 (1999), which is incorporated herein by reference. Briefly, conditioned media from transiently expressed BChE variants were exposed to 20 mM CPT-11 for 72 hours at 37° C. and analyzed by HPLC for SN-38 formation (peak at about 4 minutes column retention time)."}, "[4]": {"test": "CPT-11 hydrolysis by BChE variant 4-1, SN38 quantitated by reverse-phase HPLC, Km by Hofstee plot", "type": "biochemical", "settings": "for Km / fold increase in CPT-11 hydrolysis over wild-type BChE: 37° C., 24 hours; for Km: 1-80 μM CPT-11; for fold increase in CPT-11 hydrolysis over wild-type BChE: SN38 peak AUC; for fold improvement in the Km for CPT-11: over wild-type / native serum BChE", "description": "BChE plasmid variants were expressed transiently in the human embryonic kidney cell line 293T and assayed for activity at 72 hours post-transfection. Primary screening of variants was performed by indirect measurement of enzymatic activation of CPT-11 (FIG. 2) in SW48 colon carcinoma cell cytotoxicity assays. […] Functional hits identified in these assays were characterized by sequence analysis of the corresponding DNA from the original preps. […] Enzyme was incubated at 37° C. for 24 hours with CPT-11 over a range of concentrations from 1-80 μM. […] Velocity (v) is in light absorbance units at 540 nm. Substrate concentration [s] is μM CPT-11.\nSamples were acidified and resolved by reverse-phase HPLC on a NovaPak C18 column to separate SN38 from unactivated CPT-11. SN38 peak area under the curve (AUC) was used to compare CPT-11 activation by the wild-type enzyme to the optimized BChE.4-1 variant."}, "CD20": {"biological_target": "T1, CD20 (Homo sapiens, UniProt P11836)", "T1 sequence (P11836 1-297)": "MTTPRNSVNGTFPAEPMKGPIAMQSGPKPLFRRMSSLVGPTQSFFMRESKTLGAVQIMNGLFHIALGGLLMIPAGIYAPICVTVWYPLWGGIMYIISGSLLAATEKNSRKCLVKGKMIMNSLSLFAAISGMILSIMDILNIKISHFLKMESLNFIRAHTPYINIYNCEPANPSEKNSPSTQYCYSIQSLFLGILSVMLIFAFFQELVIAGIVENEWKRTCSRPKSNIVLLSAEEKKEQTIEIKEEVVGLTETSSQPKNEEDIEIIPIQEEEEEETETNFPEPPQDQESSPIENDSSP", "test": "affinity of monovalent AME133 Fab for CD20", "type": "binding", "excerpt": "AME133 is a humanized anti-CD20 with fully human germline framework regions shown in FIGS. 19 and 20 and set forth as SEQ ID NOS: 198 and 200, with corresponding nucleic acid sequences SEQ ID NOS: 197 and 199. This antibody was generated at Applied Molecular Evolution using the company's directed evolution strategies, and the monovalent Fab binds to CD20 with extremely high affinity (1×10^−9 M). Anti-CD20-BChE.4-1 (SEQ ID NO: 202) is composed of AME133 Fab fused at the C-terminal end of the CH1 heavy chain domain to the N-terminus of modified BChE variant L530 (SEQ ID NO: 204), which is a functional fragment of reference SEQ ID NO: 180. The BChE variant was truncated at amino acid 530 to abrogate its normal assembly into tetramers."}}, "note": "Numbering of substitutions follows the chain as printed. In names and notes the source's numbering stands. Like-named read-outs stand apart in the source and are kept apart here."}
{"molecule": "hCE-1", "values": [{"measurement": "Km", "setting": "[1]", "value": 43, "unit": "µM"}]}
{"molecule": "AME133 Fab (humanized anti-CD20 with fully human germline framework regions)", "values": [{"measurement": "Kd", "setting": "CD20 (human)", "value": 1, "unit": "nM"}]}
{"molecule": "B1", "values": [{"measurement": "carboxylesterase activity relative to the level of activity seen with F227A", "setting": "[2]", "value": "approximately 50%"}, {"measurement": "CPT-11 conversion", "setting": "[3]; HPLC assay, conditioned media", "value": "less than 1%"}, {"measurement": "SN-38 formation from CPT-11 (in words)", "setting": "[3]; conditioned media", "value": "did not show detectable levels of SN-38"}, {"measurement": "Km", "setting": "[4]", "value": 40, "unit": "µM"}]}
{"molecule": "B2", "values": [{"measurement": "Fold improvement in CPT-11 conversion", "setting": "[3]", "value": ">10", "unit": "fold"}, {"measurement": "SN-38 formation from CPT-11 (in words)", "setting": "[3]; conditioned media", "value": "increased CPT-11 conversion to SN-38"}]}
{"molecule": "B3", "values": [{"measurement": "Fold improvement in CPT-11 conversion", "setting": "[3]", "value": ">35", "unit": "fold"}, {"measurement": "SN-38 formation from CPT-11 (in words)", "setting": "[3]; conditioned media", "value": "increased CPT-11 conversion to SN-38"}]}
{"molecule": "B4", "values": [{"measurement": "Fold improvement in CPT-11 conversion", "setting": "[3]", "value": ">42", "unit": "fold"}, {"measurement": "SN-38 formation from CPT-11 (in words)", "setting": "[3]; conditioned media", "value": "increased CPT-11 conversion to SN-38"}]}
{"molecule": "B5", "values": [{"measurement": "Fold improvement in CPT-11 conversion", "setting": "[3]", "value": ">6", "unit": "fold"}, {"measurement": "SN-38 formation from CPT-11 (in words)", "setting": "[3]; conditioned media", "value": "increased CPT-11 conversion to SN-38"}]}
{"molecule": "B6", "values": [{"measurement": "Kd", "setting": "CD20", "value": 1, "unit": "nM"}]}
{"molecule": "B7", "values": [{"measurement": "Km", "setting": "[4]", "value": "~7", "unit": "µM"}, {"measurement": "Km", "setting": "[4]; listed as BChE variant 4-1", "value": 6.9, "unit": "µM"}, {"measurement": "fold increase in CPT-11 hydrolysis over wild-type BChE", "setting": "[4]", "value": "> 3000", "unit": "fold"}, {"measurement": "fold increase in CPT-11 hydrolysis over wild-type BChE", "setting": "[4]; listed as BChE variant 4-1", "value": "> 3000", "unit": "fold"}, {"measurement": "fold increase in CPT-11 hydrolysis over wild-type BChE", "setting": "[4]; listed as SEQ ID NO: 180", "value": "three thousand"}, {"measurement": "fold improvement in the Km for CPT-11", "setting": "[4]", "value": "5-6 fold"}, {"measurement": "fold improvement in the Km for CPT-11", "setting": "[4]; listed as BChE variant 4-1", "value": "> 5", "unit": "fold"}]}
{"molecule": "B8", "values": [{"measurement": "Km", "setting": "[1]", "value": 3.4, "unit": "µM"}, {"measurement": "rate of CPT-11 conversion to SN38, fold higher than hCE-1", "setting": "[1]; at pharmacologically relevant drug concentrations (˜1-10 μM)", "value": "25-30 fold"}]}
